Two proteins from FireProtDB (doi:10.1093/protein/15.6.455) can be followed below.

The conditions of this series: pH 3.6, Thermal, DSC, sodium acetate 50 mM, reversible: yes, whole UniProt chain shown; for heat capacity change of unfolding / unfolding enthalpy (calorimetric): 62.6 °C.
The mark [1] stands for this setting: Hydrogenobacter thermophilus (strain DSM 6534 / IAM 12695 / TK-6).
The mark [2] stands for this setting: Pseudomonas aeruginosa (strain ATCC 15692 / DSM 22644 / CIP 104116 / JCM 14847 / LMG 12228 / 1C / PRS 101 / PAO1).

B1: Cytochrome c-552 wild type, P15452 (protein)
chain: MKKFLLVAVVGLAGITFANEQLAKQKGCMACHDLKAKKVGPAYADVAKKYAGRKDAVDYLAGKIKKGGSGVWGSVPMPPQNVTDAEAKQLAQWILSIK
On to B1, for which, under setting [1], the “heat capacity change of unfolding” value was determined as 0.54 kcal/mol/K, the “unfolding enthalpy (calorimetric)” value was 69.5 kcal/mol and the Tm amounted to 94 °C.

B2: Cytochrome c-551 wild type, P00099 (protein)
chain: MKPYALLSLLATGTLLAQGAWAEDPEVLFKNKGCVACHAIDTKMVGPAYKDVAAKFAGQAGAEAELAQRIKNGSQGVWGPIPMPPNAVSDDEAQTLAKWVLSQK
Regarding B2, under setting [2], the “heat capacity change of unfolding” value was 0.72 kcal/mol/K, the “unfolding enthalpy (calorimetric)” value turned out to be 60.8 kcal/mol and the melting temperature (Tm) is 62.6 °C.

A word on the Tm: it is the temperature at which the thermal transition is half complete.
